Target: Cry11Aa toxin, trypsin-activated (Bacillus thuringiensis subsp. …, UniProt P21256 1-643)
Assay: ELISA

B1: truncated AaeAPN1 fragment AaeAPN1t (amino acids 525-778) (domain or fragment)
chain: RTYETGDIIISQERFISDRKVPNTNVWMIPYNYVHQSKADFDDLSTFSWLSTKAARINTEVPANEWIIFNKQQVGYYRVNYDANNWELITNALINNLSSIDRLNRAQLIDDAYWLARSGRLDIEVLMKLLTYLKDETEYAPWTAANNVLSYFNGKLRGTPAYKDFTTMVDHLIKKVYKTLDVTAVSDTEPLLHKYLKQTISTWACLIGNEDCLKRTKEALQKEVTEGIPVHPDVATVVYCNGLRTADVAEYQYL
In the case of B1, the Kd is reported as 8.5 nM.

Source: PMC2763025 (Insect biochemistry and molecular biology, 2009)
